Data on 15 variants can be found in the RNAGym collection of RNA variant scans (doi:10.1093/molbev/msab373).

The labels stand for the following.
B1: Azoarcus group I ribozyme (parent)
chain: GUGCCUUGCGCCGGGAAACCACGCAAGGGAUGGUGUCAAAUUCGGCGAAACCUAAGCGCCCGCCCGGGCGUAUGGCAACGCCGAGCCAAGCUUCGGCGCCUGCGCCGAUGAAGGUGUAGAGACUAGACGGCACCCACCUAAGGCAAACGCUAUGGUGAAGGCAUAGUCCAGGGAGUGGCGAAAGUCACACAAACCGG

In this data set the parent is B1. Nature of the data set: reverse-splicing fitness (ratio to wild type); higher = more active; in vitro selection; Mg2+ level not given. The gist of the method: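 An in vitro group I ribozyme library with randomized positions was T7-transcribed and gel-purified. In triplicate, 10 pmol RNA in EPPS pH 7.5 was reacted with 50 pmoles of a 30-nt RNA substrate for 1 h at 37 °C across several added MgCl2 levels (1–48 mM), then stopped with EDTA. Products were reverse transcribed from a substrate-complementary primer, PCR-amplified and sequenced (HiSeq 4000). Fitness is a variant's read proportion after selection over that before, normalised to wild type.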
Regarding GUGCCUUGCGCCGGGAAACCACGCAAGGGAUGGUGUCAAAUUCGGCGAAACCUAAGCGCCCGCCCGGGCGUAUGGCAACGCUGAGCCAAGCUUCGGCGCCUGCGCCGAUGUAGGUGUAGUGACUAGACGGCACCCACCUAAGGCUAACGUUAUGGUGAAGGCAUAGUCAAGGGAGAGGCGAAAGUCACACAAACCGG [C82U A111U A120U A145U C150U C169A U176A], the reverse-splicing fitness was determined as 0.00292.

Turning to GUGCCUUGCGCCGGGAAACCACGCAAGGGAUGGUGUCAAAUUCGGCGAAACCUAAGCGCCCGCCCGGGCGUAUGGCAACGCUGAGCCAAGCUUCGGCGCCUGCGCCGAUGUAGGUGUAGUGACUAGACGGCACCCACCUAAGGCUAACGUUAUGGUGAAGGCAUAGUCAAGGGAGGGGCGAAAGUCACACAAACCGG [C82U A111U A120U A145U C150U C169A U176G], the reverse-splicing fitness was determined as 0.00202.

Turning to GUGCCUUGCGCCGGGAAACCACGCAAGGGAUGGUGUCAAAUUCGGCGAAACCUAAGCGCCCGCCCGGGCGUAUGGCAACGCUGAGCCAAGCUUCGGCGCCUGCGCCGAUGUAGGUGUAGUGACUAGACGGCACCCACCUAAGGCUAACGUUAUGGUGAAGGCAUAGUCAAGGGAGCGGCGAAAGUCACACAAACCGG [C82U A111U A120U A145U C150U C169A U176C], the reverse-splicing fitness is 0.00275.

With GUGCCUUGCGCCGGGAAACCACGCAAGGGAUGGUGUCAAAUUCGGCGAAACCUAAGCGCCCGCCCGGGCGUAUGGCAACGCUGAGCCAAGCUUCGGCGCCUGCGCCGAUGUAGGUGUAGUGACUAGACGGCACCCACCUAAGGCUAACGUUAUGGUGAAGGCAUAGUCCAGGGAGAGGCGAAAGUCACACAAACCGG [C82U A111U A120U A145U C150U U176A], the reverse-splicing fitness is 0.00665.

In the case of GUGCCUUGCGCCGGGAAACCACGCAAGGGAUGGUGUCAAAUUCGGCGAAACCUAAGCGCCCGCCCGGGCGUAUGGCAACGCUGAGCCAAGCUUCGGCGCCUGCGCCGAUGUAGGUGUAGUGACUAGACGGCACCCACCUAAGGCUAACGUUAUGGUGAAGGCAUAGUCCAGGGAGCGGCGAAAGUCACACAAACCGG [C82U A111U A120U A145U C150U U176C], the reverse-splicing fitness came to 0.00855.

Regarding GUGCCUUGCGCCGGGAAACCACGCAAGGGAUGGUGUCAAAUUCGGCGAAACCUAAGCGCCCGCCCGGGCGUAUGGCAACGCUGAGCCAAGCUUCGGCGCCUGCGCCGAUGUAGGUGUAGUGACUAGACGGCACCCACCUAAGGCUAACGUUAUGGUGAAGGCAUAGUCCAGGGAGGGGCGAAAGUCACACAAACCGG [C82U A111U A120U A145U C150U U176G], the reverse-splicing fitness was 0.00324.

GUGCCUUGCGCCGGGAAACCACGCAAGGGAUGGUGUCAAAUUCGGCGAAACCUAAGCGCCCGCCCGGGCGUAUGGCAACGCUGAGCCAAGCUUCGGCGCCUGCGCCGAUGUAGGUGUAGUGACUAGACGGCACCCACCUAAGGCUAACGUUAUGGUGAAGGCAUAGUCUAGGGAGAGGCGAAAGUCACACAAACCGG [C82U A111U A120U A145U C150U C169U U176A]: the reverse-splicing fitness worked out at 0.00293.

On to GUGCCUUGCGCCGGGAAACCACGCAAGGGAUGGUGUCAAAUUCGGCGAAACCUAAGCGCCCGCCCGGGCGUAUGGCAACGCUGAGCCAAGCUUCGGCGCCUGCGCCGAUGUAGGUGUAGUGACUAGACGGCACCCACCUAAGGCUAACGUUAUGGUGAAGGCAUAGUCUAGGGAGCGGCGAAAGUCACACAAACCGG [C82U A111U A120U A145U C150U C169U U176C], for which the reverse-splicing fitness is 0.00392.

Consider GUGCCUUGCGCCGGGAAACCACGCAAGGGAUGGUGUCAAAUUCGGCGAAACCUAAGCGCCCGCCCGGGCGUAUGGCAACGCUGAGCCAAGCUUCGGCGCCUGCGCCGAUGUAGGUGUAGUGACUAGACGGCACCCACCUAAGGCUAACGUUAUGGUGAAGGCAUAGUCUAGGGAGGGGCGAAAGUCACACAAACCGG [C82U A111U A120U A145U C150U C169U U176G], for which the reverse-splicing fitness came out at 0.00227.

GUGCCUUGCGCCGGGAAACCACGCAAGGGAUGGUGUCAAAUUCGGCGAAACCUAAGCGCCCGCCCGGGCGUAUGGCAACGCUGAGCCAAGCUUCGGCGCCUGCGCCGAUGUAGGUGUAGUGACUAGACGGCACCCACCUAAGGCUAACGCUAUGGUGAAGGCAUAGUCAAGGGAGUGGCGAAAGUCACACAAACCGG [C82U A111U A120U A145U C169A]: the reverse-splicing fitness amounted to 0.00251.

In the case of GUGCCUUGCGCCGGGAAACCACGCAAGGGAUGGUGUCAAAUUCGGCGAAACCUAAGCGCCCGCCCGGGCGUAUGGCAACGCUGAGCCAAGCUUCGGCGCCUGCGCCGAUGUAGGUGUAGUGACUAGACGGCACCCACCUAAGGCUAACGUUAUGGUGAAGGCAUAGUCUAGGGAGUGGCGAAAGUCACACAAACCGG [C82U A111U A120U A145U C150U C169U], the reverse-splicing fitness worked out at 0.00365.

With GUGCCUUGCGCCGGGAAACCACGCAAGGGAUGGUGUCAAAUUCGGCGAAACCUAAGCGCCCGCCCGGGCGUAUGGCAACGCUGAGCCAAGCUUCGGCGCCUGCGCCGAUGUAGGUGUAGUGACUAGACGGCACCCACCUAAGGCUAACGUUAUGGUGAAGGCAUAGUCGAGGGAGUGGCGAAAGUCACACAAACCGG [C82U A111U A120U A145U C150U C169G], the reverse-splicing fitness was found to be 0.00343.

Turning to GUGCCUUGCGCCGGGAAACCACGCAAGGGAUGGUGUCAAAUUCGGCGAAACCUAAGCGCCCGCCCGGGCGUAUGGCAACGCUGAGCCAAGCUUCGGCGCCUGCGCCGAUGUAGGUGUAGUGACUAGACGGCACCCACCUAAGGCUAACGUUAUGGUGAAGGCAUAGUCGAGGGAGGGGCGAAAGUCACACAAACCGG [C82U A111U A120U A145U C150U C169G U176G], the reverse-splicing fitness was 0.00202.

For the variant GUGCCUUGCGCCGGGAAACCACGCAAGGGAUGGUGUCAAAUUCGGCGAAACCUAAGCGCCCGCCCGGGCGUAUGGCAACGCUGAGCCAAGCUUCGGCGCCUGCGCCGAUGUAGGUGUAGUGACUAGACGGCACCCACCUAAGGCUAACGUUAUGGUGAAGGCAUAGUCGAGGGAGAGGCGAAAGUCACACAAACCGG [C82U A111U A120U A145U C150U C169G U176A], the reverse-splicing fitness amounted to 0.00276.

For the variant GUGCCUUGCGCCGGGAAACCACGCAAGGGAUGGUGUCAAAUUCGGCGAAACCUAAGCGCCCGCCCGGGCGUAUGGCAACGCUGAGCCAAGCUUCGGCGCCUGCGCCGAUGUAGGUGUAGUGACUAGACGGCACCCACCUAAGGCUAACGUUAUGGUGAAGGCAUAGUCGAGGGAGCGGCGAAAGUCACACAAACCGG [C82U A111U A120U A145U C150U C169G U176C], the reverse-splicing fitness amounted to 0.00317.
